Measurements: patent US20200338210A1 (ARDEAGEN, published 2020)
Each block holds one molecule with its values, some of them ahead of it.

Assays:
human ROR1 on cell lines [1] = biological target: T1, human ROR1 on cell lines (human, UniProt Q01973 30-937); assay: quantitative flow cytometry on Daudi cells (cell only 229)
T1 construct: Jeko-1 'bearing the ROR1 antigen'); also called Receptor tyrosine kinase-like orphan receptor 1

human ROR1 on cell lines [2] = biological target: T1, human ROR1 on cell lines; assay: quantitative flow cytometry on Jeko-1 cells (cell only 237)
human ROR1 on cell lines [3] = biological target: T1, human ROR1 on cell lines; assay: quantitative flow cytometry on MKN-45 cells (cell only 451)
human ROR1 on cell lines [4] = biological target: T1, human ROR1 on cell lines; assay: quantitative flow cytometry on HCCLM3 cells (cell only 1014)
human ROR1 on cell lines [5] = biological target: T1, human ROR1 on cell lines; assay: quantitative flow cytometry on MHCC97H cells (cell only 781)
human ROR1 on cell lines [6] = biological target: T1, human ROR1 on cell lines; assay: quantitative flow cytometry on Namalwa cells (cell only 222)
human ROR1 on cell lines [7] = biological target: T1, human ROR1 on cell lines; assay: quantitative flow cytometry on Daudi cells (cell only 328.77)
human ROR1 on cell lines [8] = biological target: T1, human ROR1 on cell lines; assay: quantitative flow cytometry on KATO-III cells (cell only 764)
human ROR1 on cell lines [9] = biological target: T1, human ROR1 on cell lines; assay: quantitative flow cytometry on MKN-45 cells (cell only 641.4)
human ROR1 on cell lines [10] = biological target: T1, human ROR1 on cell lines; assay: quantitative flow cytometry on Jeko-1 cells (cell only 340.33)
human ROR1 on cell lines [11] = biological target: T1, human ROR1 on cell lines; assay: quantitative flow cytometry on NCI-H2228 cells (cell only 633)
human ROR1 on cell lines [12] = biological target: T1, human ROR1 on cell lines; assay: quantitative flow cytometry on NCI-H226 cells (cell only 1097)
human ROR1 on cell lines [13] = biological target: T1, human ROR1 on cell lines; assay: quantitative flow cytometry on HCCLM3 cells (cell only 1420.81)
human ROR1 on cell lines [14] = biological target: T1, human ROR1 on cell lines; assay: quantitative flow cytometry on MDA-MD-231 cells (cell only 668)
human ROR1 on cell lines [15] = biological target: T1, human ROR1 on cell lines; assay: quantitative flow cytometry on Namalwa cells (cell only 319.84)
human ROR1 on cell lines [16] = biological target: T1, human ROR1 on cell lines; assay: quantitative flow cytometry on MHCC97H cells (cell only 1099.77)
human ROR1 on cell lines [17] = biological target: T1, human ROR1 on cell lines; assay: quantitative flow cytometry on KATO-III cells (cell only 1075.85)
human ROR1 on cell lines [18] = biological target: T1, human ROR1 on cell lines; assay: quantitative flow cytometry on NCI-H2228 cells (cell only 894.37)
human ROR1 on cell lines [19] = biological target: T1, human ROR1 on cell lines; assay: quantitative flow cytometry on NCI-H226 cells (cell only 1536.32)
human ROR1 on cell lines [20] = biological target: T1, human ROR1 on cell lines; assay: quantitative flow cytometry on MDA-MD-231 cells (cell only 942.92)
human ROR1 on cell lines [21] = biological target: T1, human ROR1 on cell lines; assay: flow cytometry on Jeko-1 cells, FITC secondary, 4 C (on ice) T0 (secondary only 242)
Protocol: (§1) The following JeKo-1 internalization assay was used. [0179] 1. Harvest Jeko-1 cells (suspension): count and spin down required cell number for experiment in 15 ml falcon tube. Re-suspended in PBS+3% FBS in bulk and aliquoted 100 μl (500,000 cells) per tube. [0180] 2. 2 μg each ADC per tube were added from bulk dilution, incubated 4° C. (on ice) for 1 hour. [0181] 3. 3×wash in 3 ml PBS+3% FBS. Centrifuge set to 1200 RPM for 3 min spin. Carefully decanted and discarded supernatant at each step. Pulse vortexed cell pellets. Left equal volumes in tubes after final wash. [0182] 4. Placed one set of tubes at 37° C. for each Ab tested, included secondary only control set for comparison. T₀=4° C., T₁=37° C. 30 min, T₁=37+ C., […] [0183] 5. After incubation times were complete, removed tubes from incubator and keep on ice until all samples were collected. [0184] 6. Added FITC labelled secondary, incubate on ice 45 min. [0185] 7. 3×wash in 3 ml PBS+3% FBS. Centrifuge set to 1500 RPM for 5 min spin. Carefully decanted and discarded supernatant at each step. Pulse vortexed cell pellets. Left equal volumes in tubes after final wash. [0186] 8. Collected data on instrument

human ROR1 on cell lines [22] = biological target: T1, human ROR1 on cell lines; assay: flow cytometry on Jeko-1 cells, FITC secondary, surface signal left after 37 C, 2.5 hr T2 (secondary only 215)
Protocol: as §1

human ROR1 on cell lines [23] = biological target: T1, human ROR1 on cell lines; assay: flow cytometry on Jeko-1 cells, FITC secondary, surface signal left after 37 C, 30 min T1 (secondary only 216)
Protocol: as §1

[24] = biological target: T2, ROR1 (target of the KD values in Table 7) (Homo sapiens (Human), UniProt Q01973 30-403, limits assumed); assay: method not stated (Table 7); lower end of the printed range 100-400 pM
T2 sequence (Q01973 30-403 limits assumed): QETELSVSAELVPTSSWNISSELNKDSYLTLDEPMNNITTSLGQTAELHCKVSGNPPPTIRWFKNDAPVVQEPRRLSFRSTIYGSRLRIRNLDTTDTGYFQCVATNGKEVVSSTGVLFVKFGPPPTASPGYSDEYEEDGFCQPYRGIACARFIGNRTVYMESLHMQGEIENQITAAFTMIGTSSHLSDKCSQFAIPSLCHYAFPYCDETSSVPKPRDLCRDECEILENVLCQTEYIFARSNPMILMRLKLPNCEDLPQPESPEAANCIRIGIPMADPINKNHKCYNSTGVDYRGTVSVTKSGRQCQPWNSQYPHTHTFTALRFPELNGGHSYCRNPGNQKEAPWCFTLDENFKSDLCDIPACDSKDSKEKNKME

[25] = biological target: T2, ROR1 (target of the KD values in Table …); assay: method not stated (Table 7); upper end of the printed range 100-400 pM

T1 sequence (Q01973 30-937 limits assumed): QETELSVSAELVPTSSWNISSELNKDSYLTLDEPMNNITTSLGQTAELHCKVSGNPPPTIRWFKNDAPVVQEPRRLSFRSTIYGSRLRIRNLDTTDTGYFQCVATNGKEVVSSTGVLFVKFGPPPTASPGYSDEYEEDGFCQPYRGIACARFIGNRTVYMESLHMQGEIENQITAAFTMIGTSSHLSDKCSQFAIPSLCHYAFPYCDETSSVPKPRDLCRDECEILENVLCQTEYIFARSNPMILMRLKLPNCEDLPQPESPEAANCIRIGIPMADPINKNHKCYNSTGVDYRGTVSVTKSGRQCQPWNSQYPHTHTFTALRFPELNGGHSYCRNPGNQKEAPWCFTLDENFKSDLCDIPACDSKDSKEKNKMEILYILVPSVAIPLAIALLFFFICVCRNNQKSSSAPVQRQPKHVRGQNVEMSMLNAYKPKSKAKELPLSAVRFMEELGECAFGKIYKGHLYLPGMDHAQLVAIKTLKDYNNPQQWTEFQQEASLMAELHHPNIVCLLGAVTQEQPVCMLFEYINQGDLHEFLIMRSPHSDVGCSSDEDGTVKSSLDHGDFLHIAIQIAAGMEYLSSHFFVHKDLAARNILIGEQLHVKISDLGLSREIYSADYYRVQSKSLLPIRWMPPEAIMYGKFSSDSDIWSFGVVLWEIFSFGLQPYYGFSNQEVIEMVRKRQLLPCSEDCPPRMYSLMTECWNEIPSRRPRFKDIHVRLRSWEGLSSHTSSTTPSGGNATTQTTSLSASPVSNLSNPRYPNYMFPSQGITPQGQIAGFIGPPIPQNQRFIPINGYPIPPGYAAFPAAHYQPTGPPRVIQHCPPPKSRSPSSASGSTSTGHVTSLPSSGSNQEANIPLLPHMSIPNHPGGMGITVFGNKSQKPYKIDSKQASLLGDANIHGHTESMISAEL

B2: 2A2-CH1/C-Terminal double tag (antibody, V domains shown)
VH: QVQLQQSGAELVRPGASVTLSCKASGYTFSDYEMHWVIQTPVHGLEWIGAIDPETGGTAYNQKFKGKAILTADKSSSTAYMELRSLTSEDSAVYYCTGYYDYDSFTYWGQGTLVTVSA
VL: DIVMTQSQKIMSTTVGDRVSITCKASQNVDAAVAWYQQKPGQSPKLLIYSASNRYTGVPDRFTGSGSGTDFTLTISNMQSEDLADYFCQQYDIYPYTFGGGTKLEIK
modifications: tags in CH1 and at the C-terminus (sequences and positions not given)
notes: The protocol speaks of 'each ADC', so a payload may be attached; none is named; also called CH1/CT double-tagged 2A2
- MFI (human ROR1 on cell lines [21]): 1100
- MFI (human ROR1 on cell lines [22]): 658
- MFI (human ROR1 on cell lines [23]): 869

B4: 2A2-CH1 tag (antibody, V domains shown)
VH: QVQLQQSGAELVRPGASVTLSCKASGYTFSDYEMHWVIQTPVHGLEWIGAIDPETGGTAYNQKFKGKAILTADKSSSTAYMELRSLTSEDSAVYYCTGYYDYDSFTYWGQGTLVTVSA
VL: DIVMTQSQKIMSTTVGDRVSITCKASQNVDAAVAWYQQKPGQSPKLLIYSASNRYTGVPDRFTGSGSGTDFTLTISNMQSEDLADYFCQQYDIYPYTFGGGTKLEIK
modifications: tag in CH1 (sequence and position not given)
notes: The protocol speaks of 'each ADC', so a payload may be attached; none is named; also called CH1-tagged 2A2
- MFI (human ROR1 on cell lines [21]): 1100
- MFI (human ROR1 on cell lines [22]): 786
- MFI (human ROR1 on cell lines [23]): 1050

B5: 2A2-C-Terminal tag (antibody, V domains shown)
VH: QVQLQQSGAELVRPGASVTLSCKASGYTFSDYEMHWVIQTPVHGLEWIGAIDPETGGTAYNQKFKGKAILTADKSSSTAYMELRSLTSEDSAVYYCTGYYDYDSFTYWGQGTLVTVSA
VL: DIVMTQSQKIMSTTVGDRVSITCKASQNVDAAVAWYQQKPGQSPKLLIYSASNRYTGVPDRFTGSGSGTDFTLTISNMQSEDLADYFCQQYDIYPYTFGGGTKLEIK
modifications: C-terminal tag on the antibody (sequence not given)
notes: The protocol speaks of 'each ADC', so a payload may be attached; none is named; also called CT-tagged 2A2; C-terminal (CT)-tagged 2A2
- MFI (human ROR1 on cell lines [21]): 990
- MFI (human ROR1 on cell lines [22]): 750
- MFI (human ROR1 on cell lines [23]): 959

Other lines, results leading:

- Ab binding capacity/cell (human ROR1 on cell lines [1]): 227 per cell
- Ab binding capacity/cell (human ROR1 on cell lines [2]): 235 per cell
- Ab binding capacity/cell (human ROR1 on cell lines [3]): 464 per cell
- Ab binding capacity/cell (human ROR1 on cell lines [4]): 1024 per cell
- Ab binding capacity/cell (human ROR1 on cell lines [5]): 757 per cell
- Ab binding capacity/cell (human ROR1 on cell lines [6]): 204 per cell
- MFI (Geom. mean of FL2) (human ROR1 on cell lines [7]): 327
- Ab binding capacity/cell (human ROR1 on cell lines [8]): 760 per cell
- MFI (Geom. mean of FL2) (human ROR1 on cell lines [9]): 659
- MFI (Geom. mean of FL2) (human ROR1 on cell lines [10]): 338
- Ab binding capacity/cell (human ROR1 on cell lines [11]): 600 per cell
- Ab binding capacity/cell (human ROR1 on cell lines [12]): 996 per cell
- MFI (Geom. mean of FL2) (human ROR1 on cell lines [13]): 1430
- Ab binding capacity/cell (human ROR1 on cell lines [14]): 660 per cell
- MFI (Geom. mean of FL2) (human ROR1 on cell lines [15]): 294
- MFI (Geom. mean of FL2) (human ROR1 on cell lines [16]): 1070
- MFI (Geom. mean of FL2) (human ROR1 on cell lines [17]): 1070
- MFI (Geom. mean of FL2) (human ROR1 on cell lines [18]): 849
- MFI (Geom. mean of FL2) (human ROR1 on cell lines [19]): 1400
- MFI (Geom. mean of FL2) (human ROR1 on cell lines [20]): 931
Molecule: mIgG (antibody)

- MFI (human ROR1 on cell lines [21]): 1070
- MFI (human ROR1 on cell lines [22]): 882
- MFI (human ROR1 on cell lines [23]): 1070
B1: 2A2-untagged (antibody, V domains shown)
VH: QVQLQQSGAELVRPGASVTLSCKASGYTFSDYEMHWVIQTPVHGLEWIGAIDPETGGTAYNQKFKGKAILTADKSSSTAYMELRSLTSEDSAVYYCTGYYDYDSFTYWGQGTLVTVSA
VL: DIVMTQSQKIMSTTVGDRVSITCKASQNVDAAVAWYQQKPGQSPKLLIYSASNRYTGVPDRFTGSGSGTDFTLTISNMQSEDLADYFCQQYDIYPYTFGGGTKLEIK
notes: also called untagged 2A2

- Kd [24]: ≥ 0.1 nM
- Kd [25]: ≤ 0.4 nM
B3: Mouse 2A2 Antibody (antibody, mouse IgG1, kappa, V domains shown)
VH: QVQLQQSGAELVRPGASVTLSCKASGYTFSDYEMHWVIQTPVHGLEWIGAIDPETGGTAYNQKFKGKAILTADKSSSTAYMELRSLTSEDSAVYYCTGYYDYDSFTYWGQGTLVTVSA
VL: DIVMTQSQKIMSTTVGDRVSITCKASQNVDAAVAWYQQKPGQSPKLLIYSASNRYTGVPDRFTGSGSGTDFTLTISNMQSEDLADYFCQQYDIYPYTFGGGTKLEIKR
notes: also called m2A2; 2A2 anti-ROR1 antibodies
